Article PMC4255253

Target: human inducible heat shock protein 70 (hHsp70), full-length, non-tagged (human)
Test: BLI; biotinylated hHsp70 or DnaK immobilised on streptavidin biosensor tips, analyte in PBS (hHsp70 200-500 nM; hHsp40 20-50 nM; DnaK 200-500 nM), association 600 s, dissociation 600 s, 1:1 model

Chain of human inducible heat shock protein 70 (hHsp70), full-length, non-tagged (human) (P0DMV8 whole entry E110D): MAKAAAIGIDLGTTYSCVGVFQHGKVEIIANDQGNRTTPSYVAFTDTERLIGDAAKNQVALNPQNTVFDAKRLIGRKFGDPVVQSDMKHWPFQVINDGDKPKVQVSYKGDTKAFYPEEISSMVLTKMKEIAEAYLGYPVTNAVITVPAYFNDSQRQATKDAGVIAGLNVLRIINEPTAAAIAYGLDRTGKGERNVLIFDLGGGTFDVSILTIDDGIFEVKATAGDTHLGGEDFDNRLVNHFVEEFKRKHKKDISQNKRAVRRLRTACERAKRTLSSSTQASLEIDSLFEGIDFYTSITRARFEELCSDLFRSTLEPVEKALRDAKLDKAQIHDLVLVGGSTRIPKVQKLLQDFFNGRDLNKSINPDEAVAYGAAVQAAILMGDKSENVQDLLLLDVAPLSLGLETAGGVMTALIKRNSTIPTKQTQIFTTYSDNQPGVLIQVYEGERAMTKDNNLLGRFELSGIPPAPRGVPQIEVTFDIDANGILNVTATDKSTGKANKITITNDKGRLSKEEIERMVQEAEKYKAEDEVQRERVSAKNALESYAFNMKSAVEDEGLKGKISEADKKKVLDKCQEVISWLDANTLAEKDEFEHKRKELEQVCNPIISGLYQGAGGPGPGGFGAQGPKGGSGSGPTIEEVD

## human heat shock protein 40 (hHsp40) (from UniProt P25685 1-340) (natural protein)
  Kd: 0.52 nM
